Reference: patent publication US20100333236A1
“And” between values parts separate entries of the source, which are not always exact repeats. Identical values can stand only once. Like-named read-outs stand apart in the source and are kept apart here. Values belong to the molecule of their own block, whether it stands above or below them.

Assays:
Test in all cases: cell-based or functional assay
[1] = target: cysteine-like cathepsin-B protease activities from extracts of adults of Acyrthosiphon pisum (pea aphid) (Acyrthosiphon pisum)
[2] = target: cysteine-like cathepsin-L protease activities from extracts of adults of Tetranychus urticae (spider mites) (Tetranychus urticae)
[3] = target: cysteine-like cathepsin-L protease activities from extracts of adults of Tribolium castaneum (red flour beetle) (Tribolium castaneum)
[4] = target: serine-like trypsin protease activities from Spodoptera littoralis (cotton leafworm) larval gut extracts (Spodoptera littoralis)
[5] = target: cysteine-like cathepsin-L protease activities from extracts of adults of Acyrthosiphon pisum (pea aphid) (Acyrthosiphon pisum)
[6] = target: serine-like trypsin protease activities from Sesamia nonagrioides (Mediterranean corn borer) larval gut extracts (Sesamia nonagrioides)
[7] = target: cysteine-like cathepsin-L protease activities from extracts of adults of Bemisia tabaci (sweetpotato whitefly) (Bemisia tabaci)
[8] = target: serine-like chymotrypsin protease activities from Sesamia nonagrioides (Mediterranean corn borer) larval gut extracts (Sesamia nonagrioides)
[9] = target: cysteine-like cathepsin-L protease activities from Leptinotarsa decemlineata (Colorado potato beetle) gut extracts (Leptinotarsa decemlineata)
[10] = target: serine-like elastase protease activities from Ostrinia nubilalis (European corn borer) larval gut extracts (Ostrinia nubilalis)
[11] = target: serine-like trypsin protease activities from Ostrinia nubilalis (European corn borer) larval gut extracts (Ostrinia nubilalis)
[12] = target: cysteine-like cathepsin-B protease activities from Leptinotarsa decemlineata (Colorado potato beetle) gut extracts (Leptinotarsa decemlineata)
[13] = target: serine-like chymotrypsin protease activities from Spodoptera littoralis (cotton leafworm) larval gut extracts (Spodoptera littoralis)
[14] = target: cysteine-like cathepsin-L protease activities from extracts of adults of Bemisia tabaci (sweetpotato whitefly) (Bemisia tabaci); remark: listed apart in the source
[15] = target: cysteine-like cathepsin-B protease activities from extracts of adults of Acyrthosiphon pisum (pea aphid) (Acyrthosiphon pisum); remark: listed apart in the source
[16] = target: cysteine-like cathepsin-L protease activities from Leptinotarsa decemlineata (Colorado potato beetle) gut extracts (Leptinotarsa decemlineata); remark: listed apart in the source
[17] = target: serine-like trypsin protease activities from Sesamia nonagrioides (Mediterranean corn borer) larval gut extracts (Sesamia nonagrioides); remark: listed apart in the source
[18] = target: cysteine-like cathepsin-L protease activities from extracts of adults of Tetranychus urticae (spider mites) (Tetranychus urticae); remark: listed apart in the source
[19] = target: cysteine-like cathepsin-L protease activities from extracts of adults of Tribolium castaneum (red flour beetle) (Tribolium castaneum); remark: listed apart in the source
[20] = target: serine-like trypsin protease activities from Ostrinia nubilalis (European corn borer) larval gut extracts (Ostrinia nubilalis); remark: listed apart in the source
[21] = target: cysteine-like cathepsin-B protease activities from Leptinotarsa decemlineata (Colorado potato beetle) gut extracts (Leptinotarsa decemlineata); remark: listed apart in the source
[22] = target: serine-like chymotrypsin protease activities from Spodoptera littoralis (cotton leafworm) larval gut extracts (Spodoptera littoralis); remark: listed apart in the source
[23] = target: serine-like trypsin protease activities from Spodoptera littoralis (cotton leafworm) larval gut extracts (Spodoptera littoralis); remark: listed apart in the source
[24] = target: cysteine-like cathepsin-L protease activities from extracts of adults of Acyrthosiphon pisum (pea aphid) (Acyrthosiphon pisum); remark: listed apart in the source

Molecule: AtSerpin1 mutant VRPR (SEQ ID NO:4) (from UniProt Q9S7T8 1-391)
% Inhibition, Cathepsin-B, 1.25 µM serpin [1]: 27%
% Inhibition, Cathepsin-B, 5 µM serpin [1]: 14%
% Inhibition, Cathepsin-B, 10 µM serpin [1]: 23%
% Inhibition, Cathepsin-L, 1.25 µM serpin [2]: 22%
% Inhibition, Cathepsin-L, 1.25 µM serpin [3]: 38%
% Inhibition, Trypsin, 5 µM serpin [4]: 33%
% Inhibition, Trypsin, 10 µM serpin [4]: 34%
% Inhibition, Cathepsin-L, 1.25 µM serpin [5]: 16%

Molecule: AtSerpin1 mutant IRPR (SEQ ID NO:5) (from UniProt Q9S7T8 1-391)
% Inhibition, Cathepsin-B, 1.25 µM serpin [1]: 32%
% Inhibition, Trypsin, 1.25 µM serpin [6]: 38%
% Inhibition, Cathepsin-L, 1.25 µM serpin [2]: 11%
% Inhibition, Cathepsin-L, 1.25 µM serpin [3]: 73%
% Inhibition, Cathepsin-L, 1.25 µM serpin [5]: 31%

B1: AtSerpin1 (wild-type Serpin1 from Arabidopsis thaliana, At1g47710), recombinant HIS6-tagged (protein, not shown: small tags and cut ends)
chain: MDVRESISLQNQVSMNLAKHVITTVSQNSNVIFSPASINVVLSIIAAGSAGATKDQILSFLKFSSTDQLNSFSSEIVSAVLADGSANGGPKLSVANGAWIDKSLSFKPSFKQLLEDSYKAASNQADFQSKAVEVIAEVNSWAEKETNGLITEVLPEGSADSMTKLIFANALYFKGTWNEKFDESLTQEGEFHLLDGNKVTAPFMTSKKKQYVSAYDGFKVLGLPYLQGQDKRQFSMYFYLPDANNGLSDLLDKIVSTPGFLDNHIPRRQVKVREFKIPKFKFSFGFDASNVLKGLGLTSPFSGEEGLTEMVESPEMGKNLCVSNIFHKACIEVNEEGTEAAAASAGVIKLRGLLMEEDEIDFVADHPFLLVVTENITGVVLFIGQVVDPLH
% Inhibition, Cathepsin-L, 2.5 µM serpin [14]: 7%
% Inhibition, Cathepsin-L, 5 µM serpin [14]: 20%
% Inhibition, Cathepsin-L, 10 µM serpin [14]: 34%
% Inhibition, Cathepsin-L, 20 µM serpin [14]: 43%
% inhibition of cathepsin-L activity at 20 µM serpin (FIG. 6) [14]: 45%
% Inhibition, Cathepsin-B, 1.25 µM serpin [15]: 50%
% Inhibition, Cathepsin-B, 5 µM serpin [15]: 55%
% Inhibition, Cathepsin-B, 10 µM serpin [15]: 55%
concentration for 50% inhibition of cathepsin-B activity (FIG. 5) [15]: 1 µM
% Inhibition, Cathepsin-L, 1.25 µM serpin [16]: 4%
% Inhibition, Cathepsin-L, 5 µM serpin [16]: 34%
% Inhibition, Cathepsin-L, 10 µM serpin [16]: 48%
concentration for 50% inhibition of cathepsin-L activity (fluorometric substrates, FIG. 3) [16]: 10 µM
% Inhibition, Trypsin, 1.25 µM serpin [17]: 90%
% Inhibition, Trypsin, 5 µM serpin [17]: 97%
% Inhibition, Trypsin, 10 µM serpin [17]: 98%
concentration for 50% inhibition of trypsin activity (FIG. 2) [17]: 0.1 µM
% Inhibition, Cathepsin-L, 0.16 µM serpin [18]: 10%
% Inhibition, Cathepsin-L, 0.31 µM serpin [18]: 13%
% Inhibition, Cathepsin-L, 0.63 µM serpin [18]: 17%
% Inhibition, Cathepsin-L, 1.25 µM serpin [18]: 32%
% Inhibition, Cathepsin-L, 2.5 µM serpin [18]: 48%
% Inhibition, Cathepsin-L, 5 µM serpin [18]: 58%
% Inhibition, Cathepsin-L, 10 µM serpin [18]: 67%
% Inhibition, Cathepsin-L, 20 µM serpin [18]: 73%
concentration for 50% inhibition of cathepsin-L activity (FIG. 7) [18]: 2 µM
% Inhibition, Cathepsin-L, 2.5 µM serpin [19]: 16%
% Inhibition, Cathepsin-L, 5 µM serpin [19]: 68%
% Inhibition, Cathepsin-L, 10 µM serpin [19]: 73%
% Inhibition, Cathepsin-L, 20 µM serpin [19]: 76%
IC50 of cathepsin-L activity inhibition (FIG. 4) [19]: 4 µM
% Inhibition, Trypsin, 2 µM serpin [20]: 28%
% Inhibition, Cathepsin-B, 1.25 µM serpin [21]: 40%
% Inhibition, Cathepsin-B, 5 µM serpin [21]: 47%
% Inhibition, Cathepsin-B, 10 µM serpin [21]: 46%
concentration for 50% inhibition of cathepsin-B activity (FIG. 3) [21]: > 10 µM
% Inhibition, Chymotrypsin, 1.25 µM serpin [22]: 10%
% Inhibition, Chymotrypsin, 5 µM serpin [22]: 31%
% Inhibition, Chymotrypsin, 10 µM serpin [22]: 40%
concentration for 50% inhibition of chymotrypsin activity (FIG. 1) [22]: 10 to 20 µM
% Inhibition, Trypsin, 1.25 µM serpin [23]: 52%
% Inhibition, Trypsin, 5 µM serpin [23]: 83%
% Inhibition, Trypsin, 10 µM serpin [23]: 90%
concentration for 50% inhibition of trypsin activity (fluorometric substrate, FIG. 1) [23]: 1 µM
% Inhibition, Cathepsin-L, 1.25 µM serpin [24]: 42%
% Inhibition, Cathepsin-L, 5 µM serpin [24]: 42%
% Inhibition, Cathepsin-L, 10 µM serpin [24]: 39%
inhibition of cathepsin-L activity, plateau (FIG. 5) [24]: 40%

Now from value to molecule:

% Inhibition, Cathepsin-B, 5 µM serpin [1]: 49%
% Inhibition, Cathepsin-B, 10 µM serpin [1]: 66%
% Inhibition, Trypsin, 5 µM serpin [4]: 64%
% Inhibition, Trypsin, 10 µM serpin [4]: 69%
Molecule: AtSerpin1 mutant IKLK (SEQ ID NO:7) (from UniProt Q9S7T8 1-391)

% Inhibition, Cathepsin-B, 1.25 µM serpin [1]: 26%
% Inhibition, Cathepsin-L, 1.25 µM serpin [2]: 8%
Molecule: AtSerpin1 mutant WRHR (SEQ ID NO:6) (from UniProt Q9S7T8 1-391)

% Inhibition, Cathepsin-L, 0.16 µM serpin [7]: 3%
% Inhibition, Cathepsin-L, 0.31 µM serpin [7]: 10%
% Inhibition, Cathepsin-L, 0.63 µM serpin [7]: 15%
% Inhibition, Cathepsin-L, 1.25 µM serpin [7]: 27%
% Inhibition, Cathepsin-L, 2.5 µM serpin [7]: 38%
% Inhibition, Cathepsin-L, 5 µM serpin [7]: 48%
% Inhibition, Cathepsin-L, 10 µM serpin [7]: 60%
% Inhibition, Cathepsin-L, 20 µM serpin [7]: 70%
IC50 of cathepsin-L activity inhibition (FIG. 6) [7]: 5 µM
fold activity against AtSerpin1, cathepsin-L inhibition (FIG. 6) [7]: 5 times and 10 times
% Inhibition, Chymotrypsin, 5 µM serpin [8]: 32%
% Inhibition, Chymotrypsin, 10 µM serpin [8]: 70%
% Inhibition, Cathepsin-B, 1.25 µM serpin [1]: 24%
% Inhibition, Cathepsin-B, 5 µM serpin [1]: 31%
% Inhibition, Cathepsin-B, 10 µM serpin [1]: 36%
% Inhibition, Cathepsin-L, 1.25 µM serpin [9]: 18%
% Inhibition, Cathepsin-L, 5 µM serpin [9]: 44%
% Inhibition, Cathepsin-L, 10 µM serpin [9]: 66%
% Inhibition, Cathepsin-L, 0.02 µM serpin [2]: 9%
% Inhibition, Cathepsin-L, 0.04 µM serpin [2]: 11%
% Inhibition, Cathepsin-L, 0.08 µM serpin [2]: 12%
% Inhibition, Cathepsin-L, 0.16 µM serpin [2]: 22%
% Inhibition, Cathepsin-L, 0.31 µM serpin [2]: 33%
% Inhibition, Cathepsin-L, 0.63 µM serpin [2]: 44%
% Inhibition, Cathepsin-L, 1.25 µM serpin [2]: 51%
% Inhibition, Cathepsin-L, 2.5 µM serpin [2]: 59%
% Inhibition, Cathepsin-L, 5 µM serpin [2]: 71%
% Inhibition, Cathepsin-L, 10 µM serpin [2]: 75%
% Inhibition, Cathepsin-L, 20 µM serpin [2]: 79%
IC50 of cathepsin-L activity inhibition (FIG. 7) [2]: < 1 µM
fold activity against AtSerpin1, cathepsin-L inhibition (FIG. 7) [2]: 2 times and 3 times
% Inhibition, Elastase, 2 µM serpin [10]: 21%
% Inhibition, Cathepsin-L, 0.08 µM serpin [3]: 12%
% Inhibition, Cathepsin-L, 0.16 µM serpin [3]: 32%
% Inhibition, Cathepsin-L, 0.31 µM serpin [3]: 57%
% Inhibition, Cathepsin-L, 0.63 µM serpin [3]: 63%
% Inhibition, Cathepsin-L, 1.25 µM serpin [3]: 68%
% Inhibition, Cathepsin-L, 2.5 µM serpin [3]: 68%
% Inhibition, Cathepsin-L, 5 µM serpin [3]: 72%
% Inhibition, Cathepsin-L, 10 µM serpin [3]: 70%
% Inhibition, Cathepsin-L, 20 µM serpin [3]: 76%
IC50 of cathepsin-L activity inhibition (FIG. 4) [3]: 0.2 to 0.3 µM
fold activity against AtSerpin1, cathepsin-L inhibition (FIG. 4) [3]: > 10 times
% Inhibition, Trypsin, 2 µM serpin [11]: 51%
% Inhibition, Cathepsin-B, 1.25 µM serpin [12]: 62%
% Inhibition, Cathepsin-B, 5 µM serpin [12]: 77%
% Inhibition, Cathepsin-B, 10 µM serpin [12]: 70%
% Inhibition, Chymotrypsin, 1.25 µM serpin [13]: 11%
% Inhibition, Chymotrypsin, 5 µM serpin [13]: 41%
% Inhibition, Chymotrypsin, 10 µM serpin [13]: 56%
% Inhibition, Trypsin, 1.25 µM serpin [4]: 18%
% Inhibition, Trypsin, 5 µM serpin [4]: 32%
% Inhibition, Trypsin, 10 µM serpin [4]: 40%
% Inhibition, Cathepsin-L, 1.25 µM serpin [5]: 24%
% Inhibition, Cathepsin-L, 5 µM serpin [5]: 34%
% Inhibition, Cathepsin-L, 10 µM serpin [5]: 45%
Molecule: AtSerpin1 mutant IKLA (SEQ ID NO:3) (from UniProt Q9S7T8 1-391)
